Test results taken from patent publication US20090304719A1.
Where no end group is shown, it is not given here. CPX display scaffold = circularly permuted E. coli OmpX display scaffold

How the values were obtained:
[1] = target: anti-VCAM-1 scFv; assay: FACS, peptide displayed on bacteria, 50 nM biotinylated anti-VCAM scFv then 1 nM anti-biotin PE; background without scFv printed as 142
[2] = target: VEGF (UniProt P15692); assay: FACS, clone displayed on E. coli (CPX), labeled VEGF; MMP-2 treated against untreated (FIG. 25)
[3] = target: VEGF (UniProt P15692); assay: FACS, clone displayed on E. coli (CPX), labeled VEGF; with MMP-2 against without (FIG. 23)

Chain of VEGF (P15692 other isoform, or with tags, fused parts or gaps limits assumed): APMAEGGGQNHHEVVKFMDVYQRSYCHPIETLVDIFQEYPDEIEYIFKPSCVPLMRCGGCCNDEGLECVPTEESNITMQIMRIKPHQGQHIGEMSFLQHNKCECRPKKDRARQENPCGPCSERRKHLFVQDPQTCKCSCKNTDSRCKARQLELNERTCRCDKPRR

| average fluorescence value [1] | fold increase in fluorescence after enzyme cleavage [2] | fold increase in fluorescence in the presence of MMP-2 [3] | Binder |
| --- | --- | --- | --- |
| 2620 | – | – | GVVLTTMNFWDWITV [BBB-08] |
| – | 10 fold | 11.8 fold | GQSGQCEYAFGPLGLAGGGSGNFGYGKWEWDYGKWLEKVGGC-{CPX display scaffold} (designed binder, not shown: large carriers; small tags and cut ends, not fully specified; cysteine pairing not given here) [ABP library clone 2-3B-5] |
